Data: article PMC9799976

Legend:
[1] = molecular target: fluorescently labelled, biotinylated, taxol-stabilised microtubules for the TIRF assays
[2] = molecular target: fluorescently labelled, biotinylated, taxol-stabilised microtubules for the TIRF assays; test: single-molecule TIRF microscopy; TIRF landing assay: MTs immobilised on the coverslip, GFP-tagged single-head dynein in motility buffer, 2 mM ATP, with DCX; parameters: landing rate on MTs: unit not given here
[3] = molecular target: fluorescently labelled, biotinylated, taxol-stabilised microtubules for the TIRF assays; test: single-molecule TIRF microscopy; TIRF landing assay: MTs immobilised on the coverslip, GFP-tagged single-head dynein in motility buffer, 2 mM AMPPNP, with DCX; parameters: landing rate on MTs: unit not given here
[4] = molecular target: fluorescently labelled, biotinylated, taxol-stabilised microtubules for the TIRF assays; test: single-molecule TIRF microscopy; TIRF landing assay: MTs immobilised on the coverslip, GFP-tagged single-head dynein in motility buffer, 2 mM ATP, without DCX; parameters: landing rate on MTs: unit not given here
[5] = molecular target: fluorescently labelled, biotinylated, taxol-stabilised microtubules for the TIRF assays; test: single-molecule TIRF microscopy; TIRF landing assay: MTs immobilised on the coverslip, GFP-tagged single-head dynein in motility buffer, 2 mM AMPPNP, without DCX; parameters: landing rate on MTs: unit not given here
[6] = molecular target: fluorescently labelled, biotinylated, taxol-stabilised microtubules for the TIRF assays; test: single-molecule TIRF microscopy; TIRF landing assay: MTs immobilised on the coverslip, GFP-tagged single-head dynein in motility buffer, 2 mM ADP and 0.05 U/µl hexokinase, with DCX; parameters: landing rate on MTs: unit not given here
[7] = molecular target: fluorescently labelled, biotinylated, taxol-stabilised microtubules for the TIRF assays; test: single-molecule TIRF microscopy; TIRF landing assay: MTs immobilised on the coverslip, GFP-tagged single-head dynein in motility buffer, 2 mM ADP and 0.05 U/µl hexokinase, without DCX; parameters: landing rate on MTs: unit not given here
[8] = molecular target: full-length human dynein complex (heavy chain with SNAP-tag, IC, LIC, Tctex, LC8, Robl) (human) (UniProt Q14204); test: single-molecule TIRF microscopy; DDJ complexes assembled with equal amounts of dynein labeled with TMR and Alexa 647, without N-DCX; two-colour colocalisation of moving molecules

Sequence of fluorescently labelled, biotinylated, taxol-stabilised microtubules for the TIRF assays (chain, as listed by the source, chain 1 of 2): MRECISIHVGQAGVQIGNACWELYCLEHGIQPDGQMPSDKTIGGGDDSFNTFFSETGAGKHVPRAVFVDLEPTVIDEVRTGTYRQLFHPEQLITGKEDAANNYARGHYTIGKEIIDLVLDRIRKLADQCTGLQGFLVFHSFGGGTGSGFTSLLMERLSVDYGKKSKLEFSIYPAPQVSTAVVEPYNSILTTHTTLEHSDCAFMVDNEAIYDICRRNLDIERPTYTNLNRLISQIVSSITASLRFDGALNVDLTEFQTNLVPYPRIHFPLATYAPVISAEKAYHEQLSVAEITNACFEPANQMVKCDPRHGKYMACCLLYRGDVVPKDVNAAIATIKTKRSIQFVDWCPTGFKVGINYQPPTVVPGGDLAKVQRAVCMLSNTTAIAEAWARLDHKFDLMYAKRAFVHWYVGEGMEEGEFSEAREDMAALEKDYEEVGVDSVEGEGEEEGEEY
Sequence of fluorescently labelled, biotinylated, taxol-stabilised microtubules for the TIRF assays (chain, as listed by the source, chain 2 of 2): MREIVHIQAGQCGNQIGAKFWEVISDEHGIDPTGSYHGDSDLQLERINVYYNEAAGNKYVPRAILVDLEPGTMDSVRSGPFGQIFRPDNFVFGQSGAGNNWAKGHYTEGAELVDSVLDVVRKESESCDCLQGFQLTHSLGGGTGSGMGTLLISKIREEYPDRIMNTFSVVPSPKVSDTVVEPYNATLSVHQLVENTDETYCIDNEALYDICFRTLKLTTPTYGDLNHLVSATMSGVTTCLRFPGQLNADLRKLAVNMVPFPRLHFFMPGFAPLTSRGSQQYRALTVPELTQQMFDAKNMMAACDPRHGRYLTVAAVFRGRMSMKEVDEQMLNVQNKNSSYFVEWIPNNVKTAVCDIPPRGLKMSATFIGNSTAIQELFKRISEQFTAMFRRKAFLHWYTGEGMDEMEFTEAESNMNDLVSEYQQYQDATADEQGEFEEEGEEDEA

Row | velocity of MT gliding powered by surface-bound single-headed dynein with 10 nM DCX (without DCX: 0.59 [0.56, 0.63] µm/s) [1] [µm/s] | dwell time on MTs (median) [2] [s] | landing rate on MTs [2] | dwell time on MTs (median) [3] [s] | landing rate on MTs [3] | dwell time on MTs (median) [4] [s] | landing rate on MTs [4] | dwell time on MTs (median) [5] [s] | landing rate on MTs [5] | dwell time on MTs (median) [6] [s] | landing rate on MTs [6] | dwell time on MTs (median) [7] [s] | landing rate on MTs [7] | fraction of colocalization of two differently labeled dyneins in moving DDJ complexes [8] [%] | Substance
1 | 0.55 | 1.1 | 1.4 | 1.2 | 1.1 | 1 | 1.6 | 1.1 | 2.1 | 1.3 | 1.6 | 1.4 | 2.1 |  | tail-truncated single-headed human dynein (amino acids 1320-4646 of DYNC1H1), N-terminal GFP, Q14204 1320-4646
2 |  |  |  |  |  |  |  |  |  |  |  |  |  | 42 | full-length human dynein complex (heavy chain with SNAP-tag, IC, LIC, Tctex, LC8, Robl) (from UniProt Q14204 1-4646; Q13409 1-638; O43237 1-492; P63172 1-113; P63167 1-89; Q9NP97 1-96)
